Data reported in patent US7790155B2, “Calbindin-D28K protection against glucocorticoid induced cell death” (University of Medicine and Dentistry of New Jersey, priority 2002, dated 2010).
“Also recorded” adds a separate entry of the source.

Assays:
primary osteoblasts = assay: Dexamethasone induced cell death of primary osteoblasts, trypan blue uptake; assay type: cell-based, murine; details: 16 h dex. treatment (10^−6M)
Experimental: Cell viability was monitored by trypan blue exclusion. Nonadherent cells were combined with adherent cells released from the culture dish using trypsin-EDTA, resuspended in medium containing serum and collected by centrifugation. 0.04% trypan blue was added and the 150 cells per condition are counted). DNA fragmentation was measured by the TUNEL (transferase biotin-dUTP nick endlabeling). […] 104, 1363-1374; and Bellido, T., O'Brien, C. A., Roberson, P. K., and Manolagas, S. C. (1998) J. Biol. Chem. 273, 21137-21144).
In addition to MLO-Y4 cells, it will also be possible to determine the effect of dexamethasone in the presence or absence of calbindin-D28k on apoptotic cell death and on caspase 3 activity (with the methodology outlined above) using primary osteoblastic cells from calbindin-D28k KO and WT mice. Murine osteoblasts will be isolated from pups 30-72 h old from our colony of WT (C57BL6) or calbindin-D28k KO mice (cite 22 of grant, cite 111 of grant) by controlled digestion with collagenase (cite 112 of grant). Briefly calvariae, trimmed of fibrous tissue and divided in 2 are transferred to 15 ml conical sterile tubes, washed with PBS (5 ml) 3× at 37° C. (10 min/wash) in an oscillating H2O bath. Calvariae are then subjected to a series of collagenase digestions (200 μg/Ml PBS collagenase CLS2 from Worthington) in an oscillating 37° C. […]

MLO-Y4 osteocytic cells = assay: Dexamethasone induced cell death of MLO-Y4 cells transfected with calbindin-D28k expression vector (trypan blue, TUNEL, morphology); assay type: cell-based, murine; details: MLO-Y4 cells transfected with pREP4 or BSRα calbindin-D28k vector vs vector alone, 10^−6M dexamethasone, 6, 12 and 24 h
Experimental: Murine osteocytic MLO-Y4 cells (provided by Dr. Lynda Bonewald, University of Texas Health Center at San Antonio, Tex.), and primary bone cells (isolated from neonatal murine calvaria) were cultured as indicated previously (Kato, Y., Windle, J. J., Koop, B. A., Mundy, G. R., and Bonewald, L. F. (1997) J. Bone Miner Res. 12, 2014-2023) (Bellido, T., Borba, V. Z. C., Roberson, P. K., and Manolagas, S. C. (1997) Endocrinology 138, 3666-3676). All culture media contained 100 units/ml penicillin and 100 μg/ml streptomycin. Cultures were kept in a humidified atmosphere of 5% CO2 in air at 37° C.
Transient transfections of MLO-Y4 cells were carried out in 12-well culture plates using SUPERFECT®. […] After 6, 12 and 24 h, apoptosis was induced by addition of 10^−6M dexamethasone and quantified as indicated below or cell lysates collected for the analysis of calbindin-D28k by Western blotting and radioimmunoassay (cite 65 of grant).
Cell viability was monitored by trypan blue exclusion. […] 0.04% trypan blue was added and the 150 cells per condition are counted). DNA fragmentation was measured by the TUNEL (transferase biotin-dUTP nick endlabeling). […]
Data were analyzed by one-way analysis of variance, and the Student-Keuls-Newman method was used to estimate the level of significance of differences between means. […]

MC3T3-E1 cells = MC3T3-E1 cells transfected with calbindin-D28K cDNA vs empty vector; cited from earlier work
lymphocytes = details: stable expression of calbindin-D28k cDNA in lymphocytes (Dowd et al. 1992); cited from earlier work

Molecule | % of dead cells (trypan blue uptake) (primary osteoblasts; in the absence of calbindin-D28k) [%] | protection against glucocorticoid (dexamethasone) induced cell death (MLO-Y4 osteocytic cells) | protection against glucocorticoid (dexamethasone) induced cell death (MLO-Y4 osteocytic cells; listed as calbindin-D28K) | pro-apoptotic effect of TNF (nuclear fragmentation) (MC3T3-E1 cells) | % of dead cells (trypan blue uptake) (primary osteoblasts; in the presence of calbindin-D28k, p<0.05) [%] | protection against glucocorticoid induced lymphocyte cell death (lymphocytes)
C[C@@H]1C[C@H]2[C@@H]3CCC4=CC(=O)C=C[C@]4(C)[C@@]3(F)[C@@H](O)C[C@]2(C)[C@@]1(O)C(=O)CO [dex., dexamethasone, reference compound] | 23.2±3 | – | – | – | – | –
calbindin-D28k: calcium binding protein (polypeptide of SEQ ID NO:2), expressed in cells from pREP4 or BSRα calbindin-D28k expression vectors (protein, listed as Homo sapiens) MAESHLQSSLITASQFFEIWLHFDADGSGYLEGKELQNLIQELQQARKKAGLELSPEMKTFVDQYGQRDDGKIGIVELAHVLPTEENFLLLFRCQQLKSCEEFMKTWRKYDTDHSGFIETEELKNFLKDLLEKANKTVDDTKLAEYTDLMLKLFDSNNDGKLELTEMARLLPVQENFLLKFQGIKMCGKEFNKAFELYDQDGNGYIDENELDALLKDLCEKNKQDLDINNITTYKKNIMALSDGGKLYRTDLALILCAGDN | – | protection; also recorded: protected against glucocorticoid induced cell death | protection against dexamethasone induced cell death | significantly attenuated | 12.9±2.4 | protect against glucocorticoid induced lymphocyte cell death
